Substitutions are numbered along the chain they refer to.
B1: huE1B1B8C7-V12 (antibody, human IgG1, kappa, V domains shown)
VH: QVQLVQSGAEVKKPGASVKVSCKASGYSFTNYWVNWVRQAPGQGLEWIGMVHPSGSETRLNQQFKDKATLTVDKSTSTAYMELSSLRSEDTAVYYCARVWSGNAFDYWGQGTLVTVSS
VL: DIVMTQSPDSLAVSLGERATINCLSSQSLLASGNQRNYLTWYQQKPGQPPKLLIYWASTRDSGVPDRFTGSGSGTDFTLTISSVQAEDVAVYYCQNGFSFPFTFGQGTKLEIKR
B2: huE1B1B8C7-V14 (antibody, human IgG1, kappa, V domains shown)
VH: B1 VH with S28T, K74T, A79V
VL: B1 VL
notes: Humanized, human IgG1/kappa; X positions as numbered in CLM-00003 and CLM-00004
B3: huE1B1B8C7-V11 (antibody, human IgG1, kappa, V domains shown)
VH: B1 VH with S28T, K74T, A79V
VL: B1 VL with T69S, T75V
notes: as for B2
B4: huE1B1B8C7-V13 (antibody, human IgG1, kappa, V domains shown)
VH: B1 VH with K74T, A79V
VL: B1 VL
notes: as for B2
B5: huE1B1B8C7-V10 (antibody, human IgG1, kappa, V domains shown)
VH: B1 VH with K74T, A79V
VL: B1 VL with T69S, T75V
notes: as for B2
B6: huE1B1B8C7-V17 (antibody, human IgG1, kappa, V domains shown)
VH: B1 VH with S28T, K74T, A79V
VL: B1 VL with T75V, V84L
notes: as for B2
B7: huE1B1B8C7-V15 (antibody, human IgG1, kappa, V domains shown)
VH: B1 VH
VL: B1 VL with T75V, V84L
notes: as for B2
B8: huE1B1B8C7-V16 (antibody, human IgG1, kappa, V domains shown)
VH: B1 VH with K74T, A79V
VL: B1 VL with T75V, V84L
notes: as for B2
B9: huE1B1B8C7-V2 (antibody, human IgG1, kappa, V domains shown)
VH: B1 VH with K74T, A79V
VL: B1 VL with T75V
notes: as for B2
B10: huE1B1B8C7-V7 (antibody, human IgG1, kappa, V domains shown)
VH: B1 VH with L70M, K74T, A79V
VL: B1 VL with T75V
notes: as for B2
B11: huE1B1B8C7-V4 (antibody, human IgG1, kappa, V domains shown)
VH: B1 VH with I48M, K74T, A79V
VL: B1 VL with T75V
notes: as for B2
B12: huE1B1B8C7-V3 (antibody, human IgG1, kappa, V domains shown)
VH: B1 VH with S28T, K74T, A79V
VL: B1 VL with T75V
notes: as for B2
B13: huE1B1B8C7-V5 (antibody, human IgG1, kappa, V domains shown)
VH: B1 VH with K67R, K74T, A79V
VL: B1 VL with T75V
notes: as for B2
B14: huE1B1B8C7-V9 (antibody, human IgG1, kappa, V domains shown)
VH: B1 VH
VL: B1 VL with T69S, T75V
notes: as for B2
B15: huE1B1B8C7-V1 (antibody, human IgG1, kappa, V domains shown)
VH: B1 VH
VL: B1 VL with T75V
notes: as for B2
B16: huE1B1B8C7-V6 (antibody, human IgG1, kappa, V domains shown)
VH: B1 VH with A68V, K74T, A79V
VL: B1 VL with T75V
notes: as for B2

biological target: T1, human CLDN18.2 (NP_001002026.1) (human, UniProt P56856-2 1-261); assay: cell-based binding FACS on BAF3-CLDN18.2 cells, MFI against Con of mAb, nM is the unit of the x axis; curve lies in a bundle of close curves reaching MFI about 5300-5900
T1 construct: whole, on cells; KATO III cells also served as target cells in the ADCC assay; also called Claudin18.2; Claudin-18 splice variant 2
Method: (§1) The BAF3-CLDN18.2, BAF3-CLDN18.1 and BAF3 cells were harvested, washed twice and re-suspended in phosphate buffered saline (PBS) containing 2% v/v Fetal Bovine Serum (FACS buffer), BAF3 cells were used here as blank control. The cells, 1×10⁵ per well, were incubated in 96 well-plates with 100 μl serially diluted antibodies or controls (starting from 10 μg/mL, 5-fold serial dilution) in FACS buffer for 50 minutes on ice. […] Following an incubation of 50 minutes at 4° C. in dark, cells were washed three times and re-suspended in FACS buffer. Fluorescence was measured using a Becton Dickinson FACS Canto II-HTS equipment, and the MFI (mean fluorescence intensity) was plotted against antibody concentration. Data was analyzed using Graphpad Prism and EC₅₀ values were reported.

EC50 [nM]	Binder
3.06	B1
4.03	B2
5.39	B3
3.46	B4
5.74	B5
4.87	B6
2.76	B7
3.29	B8

biological target: T1, human CLDN18.2 (NP_001002026.1); assay: cell-based binding FACS on BAF3-CLDN18.2 cells, MFI against Con of mAb, nM is the unit of the x axis; curve lies in a bundle of overlapping curves reaching MFI about 5000-6000
Method: as §1

EC50 [nM]	Binder
5.18	B9
3.89	B10
3.63	B11
3.7	B12
4.33	B13
2.31	B14
3.32	B15
3.1	B16
